Data published in the supplement of paper PMC9170038.

Test system: MS2 coat protein
Experiment: apparent KD of MS2 coat protein; designed switch direction (-1 OFF switch, 1 ON switch): -1; higher = weaker reporter binding
Method in brief: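 Designed RNA switches were transcribed on Illumina chips by stalled E. coli RNA polymerase and titrated with SNAP-549-labelled MS2 coat protein from 0.7 or 1.5 nM, doubling to 3 µM. Step length ran from 0.8–1.5 h at the lowest concentration to 10–20 min at the highest. The apparent KD is the median over clusters for each design, from curve-fitted normalised cluster fluorescence.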

[1] = input ligand: microRNA oligo, concentration not stated
[2] = Eterna round: R95, input ligand: FMN 200 uM
[3] = Eterna round: R95, input ligand: microRNA oligo, concentration not stated
[4] = Eterna round: R95, input ligand: none

Sequence | apparent KD of MS2 coat protein (input ligand: FMN 200 uM) [nM] | apparent KD of MS2 coat protein (input ligand: none) [nM] | apparent KD of MS2 coat protein [3] [nM] | also measured
AGGAUGCUAGGAUAUACAGGUUGAAAACUGAUCGGCGCCAGACAUGAGGAUCACCCAUGUAGAAGGAGCGAGGC [EX2 B.26] (Eterna round: R97, puzzle: Exclusion 2) | 36.1 | 38.7 |  | 
AAAUACCGGUGAGGAUAUUUAUAAUAGAGCUUUAUGAUAUACAUGAGGAUCACCCAUGUUACUUUAAAGAAGGCAUCGGAAUAA [Mat - Exclusion NG 2 - Mod of JL - D93] (Eterna round: R96, puzzle: Exclusion NG 2) | 15.4 | 18.9 |  | apparent KD of MS2 coat protein [1]: 13.9 nM
GCGCUGCGAGGAUAUACAUGAGGAUCACCCAUGUGUCGGCAGCCAUGUUAGUACAAAUGUAGAAGGCGCGUAAA [EX3 #61] (Eterna round: R97, puzzle: Exclusion 3) | 20.8 | 18.3 |  | 
GGUUUUUCUGAGGAUAUUGCAUCACCCGAUUUAUAAGAAGGCAGAACAUGAGGAUCACCCAUGUGGGUCUCUAG [Bingo-Bango-27] (Eterna round: R97, puzzle: Exclusion 6) | 24.4 | 15.7 |  | 
GCCUAAGCAGGAUAUUCAAUAUGUCACAUGAGGAUCACCCAUGUCCAGCGAAAGCUGGAGGGAGAAGGGCUUAGGC [Mat - Exclusion 5 - Eli mod - D100] (puzzle: Exclusion 5) |  |  | 101 | apparent KD of MS2 coat protein [2]: 21.1 nM; apparent KD of MS2 coat protein [4]: 106 nM
GGAUCACAUGUGAGGAUAUGCAGGUCCUUGGAUCUGCAGAAGGCACAUGAGGAUCACCCAUGUGAUCAAGAUCC [Mat - Exclusion 4 - Eli Mod - D49] (Eterna round: R97, puzzle: Brourd's mod of Exclusion 4) | 47.4 | 61.2 |  | 
UUGUGCACGCUGCGGUCCUACAUGAGGAUCACCCAUGUGGUCUGGUGGCGUGGGUCACCGGACUUGGCUCGUCUUGU [salish99_S_TOV1_R5_060] (Eterna round: R97, puzzle: Sensor, turn-off variant 1) | 36.2 | 42.3 |  | 
ACAUUGAAUGUGAGGAUAUCGAUGUGAUGGGUUGUCGAGAAGGCACAUGAGGAUCACCCAUGUGGGAUGUAGCA [JR_BMEx4_Sub033] (Eterna round: R97, puzzle: Brourd's mod of Exclusion 4) | 349 | 91.2 |  | 
GGUCGACAUGAGGAUCACCCAUGUUAGGAUAUUAGCCAAUGGUCUCGUUAUGAGUCAUUAAGAAGGAACAUGCU [Eternabot (L1) Solution 37] (Eterna round: R97, puzzle: Exclusion 1) | 18 | 14.9 |  | 
CUUUUGUGAGGAUAUCAGUAGUAUAUAAAUAAAAUUACUACUGAGAAGGCACAUGAGGAUCACCCAUGUUCCUC [salish99_ex3_r3_076] (puzzle: Exclusion 4) |  |  | 35.5 | 
AGUGCGUAUGUGAGGAUAUGCUGGUCCUUGGAUCGGCAGAAGGCACAUGAGGAUCACCCAUGUGGUGUCGUACC [salish99_Bmod_ex4_076] (puzzle: Brourd's mod of Exclusion 4) |  |  | 136 | 
GGAUUUACUGAGGAUAUUGCAUCACCCGAUUGAUAAGAAGGCAGAACAUGAGGAUCACCCAUGUGGGUAGUCAA [Bingo-Bango-2] (Eterna round: R97, puzzle: Exclusion 6) | 80.2 | 39.3 |  | 
AAGCCACAUGAGGAUCACCCAUGUUAGGAUAUACGCAUGCAGACACGCACGGAUGCAAGUAGAAGGAACCAUGC [Design #5] (Eterna round: R97, puzzle: Exclusion 1) | 16.8 | 15.9 |  | 
UAAUACAUCUAUGGGAGUAACAUGAGGAUCACCCAUGUAUGUCUUGUUUUUUGUUCGUCAAAGACUUUCUGAUCAGU [JR_SV3TOV1_Sub030] (puzzle: Sensor v3, turn-off variant 1) |  |  | 191 | apparent KD of MS2 coat protein [2]: 76.7 nM; apparent KD of MS2 coat protein [4]: 83.2 nM
AAGAGUGCAGGAUAUACGUGAUGGAGUAGGAUGAGAGAAGGACAUGAGGAUCACCCAUGUAGAAGGGCAGAGAG [JR_Exclu2_Sub059] (puzzle: Exclusion 2) |  |  | 43.4 | apparent KD of MS2 coat protein [2]: 28.7 nM; apparent KD of MS2 coat protein [4]: 31 nM
GCUCGCGGGCAAGGAUAUCCUACGCUGUUCUGGUUCGUGUCUGUUACAUGAGGAUCACCCAUGUGGGAGAAGGUGCACCAGGGU [Design 49] (Eterna round: R96, puzzle: Exclusion NG 2) | 17.5 | 20.1 |  | apparent KD of MS2 coat protein [1]: 12.4 nM
GGUUGACAUGAGGAUCACCCAUGUGAGGAUAUGCGAGAGAAAAAAGUGAGGAAGUAAAGCAGAAGGCGCUGUCG [salish99-ex1_r3_004] (puzzle: Exclusion 1) |  |  | 200 | apparent KD of MS2 coat protein [2]: 51.6 nM; apparent KD of MS2 coat protein [4]: 449 nM
CAGUACUGAGGAUAUACAUGAGGAUCACCCAUGUGUACCAGCUAGGAAACUAGCAAAAGUAGAAGGCAGUACUG [828 mod 2 m10] (Eterna round: R97, puzzle: Exclusion 3) | 32.6 | 14.9 |  | 

Sequence | apparent KD of MS2 coat protein (input ligand: FMN 200 uM) [nM] | apparent KD of MS2 coat protein (input ligand: none) [nM] | apparent KD of MS2 coat protein [3] [nM] | also measured
UAUAUAUAGUAAGGAUAUGUAUUAGUUUUAUAAACAGAAGGUACUGACAUGAGGAUCACCCAUGUUUUAGUGUGGGCAUGUAGA [JMF's solution 74] (Eterna round: R96, puzzle: Exclusion NG 1) |  |  |  | apparent KD of MS2 coat protein [1]: 76.6 nM
GUUACACAUGAGGAUCACCCAUGUAAGGAUAUGCUGCGGUCGCGCUGACGUGACUGCAGCAGAAGGUACACAUG (puzzle: Exclusion 1) |  |  | 86.8 | 
CCCUCGGGAGGAUAUGGGUGUUUUUACAUGAGGAUCACCCAUGUGGAGUAGCAUGUGGGUCCAGAAGGCCCAAGGG [-27.5, -25.8 kcal, 22% A] (Eterna round: R97, puzzle: Exclusion 5) | 873 | 815 |  | 
UGAUCUAGGCGAGGAUAUACAUGAGGAUCACCCAUGUAAACGUGACAUGAAAACAUGUCACGAAUGUAGAAGGCGCCUAGAUCU [JL ENG2 3.54] (Eterna round: R96, puzzle: Exclusion NG 2) | 21.7 | 13.3 |  | apparent KD of MS2 coat protein [1]: 13.2 nM
UGCCUAUGAGGAUAUACGUAGAAAUAGAUUCAUGUAAAACUACAUGAGGAUCACCCAUGUAGAAGGCAUGGGCU [Mat - Exclusion 2 - JL Mod - D49] (Eterna round: R97, puzzle: Exclusion 2) | 27.5 | 16 |  | 
UCGCUGCGAGGAUAUACAUGAGGAUCACCCAUGUACGGGUCCGGGUCUUCGUCCAUUGGUAGAAGGCGCAGUGA [JL Laongeedie mod 7] (puzzle: Exclusion 3) |  |  | 22.5 | 
GUAUCGUGAGGAUAUCAUGAUUGACUUAGUUUAUGUCAGCGUGAGAAGGCACAUGAGGAUCACCCAUGUGAUUA [Ex4 - 3 - 7] (puzzle: Exclusion 4) |  |  | 23.1 | 
CUUAAAAGGAAGGAUAUGCUAGACGAAAGUCUAGCAGAAGGUCCUACAUGAGGAUCACCCAUGUGUCCUAUAAG [Mat - Exclusion 6 - Eli Mod - D13] (Eterna round: R97, puzzle: Exclusion 6) | 72.4 | 81.1 |  | 
AUAAGCUUUGAGAUCCUUAACAUGAGGAUCACCCAUGUUCGUCUUAUGAUGGUCUGAUCCCUGAGGAUCGGACCGUU [JL-sv1-2.02 Brourd Mod] (puzzle: Sensor v3, turn-off variant 1) |  |  | 10.4 | apparent KD of MS2 coat protein [2]: 262 nM; apparent KD of MS2 coat protein [4]: 257 nM
UUUUGCUCAGGAUAUACAUGAGGAUCACCCAUGUAUAUUGAAAAUAAUACAUGGGAAUGUAGAAGGGAGCUCAU [Omei Ex3 Pseudoloop 20] (Eterna round: R97, puzzle: Exclusion 3) | 127 | 168 |  | 
GAGUGCUAAGGAUAUACAUGAGGAUCACCCAUGUGCUUCAGCUAGGAGACUAGCAUUGGUAGAAGGUAGUACUC [Mod of lroppy 2 - Jieux - Exclusion 3] (Eterna round: R97, puzzle: Exclusion 3) | 60.3 | 14.7 |  | 
UCAUGUCCUGAGGAUAUCAAAGUCCUCCCGACAUGAGAAGGCAGGACAUGAGGAUCACCCAUGUGGAGCAGGGA [Sorareardi] (Eterna round: R97, puzzle: Exclusion 6) | 10.3 | 353 |  | 
CCGGAAAUGCAGGAUAUCGUAUCGGAUACGAUACGAGAAGGGUAUACAUGAGGAUCACCCAUGUGUCCUCCCGG [Fiskers Ex 6 - 53] (puzzle: Exclusion 6) |  |  | 28 | 
AAUAACAAGCCGAUCCUAAACAUGAGGAUCACCCAUGUGCUCGUCUUGUAAAGUACUAUCACGAAAGUGAUAGUACA (Eterna round: R97, puzzle: Sensor, turn-off variant 1) | 24.5 | 18 |  | 
CACUUGGCAGGAUAUGCAAUUUUAGACAUGAGGAUCACCCAUGUGAUCAUUCCAUAUUAUGCAGAAGGGCCUAAAC [JR_E5_Sub050] (puzzle: Exclusion 5) |  |  | 214 | 
UUCAGGAGUCGAGGAUAUUUGCAGACGACAUGAGGAUCACCCAUGUGGUUAGCAUAGUCUUCAGCAGAGAAGGCGACCAACGAG [Eternabot solution 20] (Eterna round: R96, puzzle: Exclusion NG 2) | 171 | 40.3 |  | apparent KD of MS2 coat protein [1]: 40 nM
CUCGUGCAGCAAAGCUGUACGAGUACAUGAGGAUCACCCAUGUAGGAUAUGGUACGCAAAGCGUGCUAGAAGGAUAUGUGAAGG [Mat - Exclusion NG 3 - Mod of JL - D88] (Eterna round: R96, puzzle: Exclusion NG 3) | 49.4 | 51.5 |  | apparent KD of MS2 coat protein [1]: 36.2 nM
